According to patent US20220016257A1 (Daiichi Sankyo, published 2022):
Where a chain is given by its changes, count along the chain named. Blank lines part the entries; values can stand above or below the binder they belong to.

What was measured:
[1] = molecular target: T1, human CDH6 (full-length, on cells) (human, UniProt P55285 54-790); assay: competition flow cytometry on 786-O/hCDH6 cells, unlabeled antibody varied, competitor Alexa488-labeled NOV0712 at 5 nM [upper panel]
T1 construct: also called hCDH6; full-length hCDH6
T1 sequence: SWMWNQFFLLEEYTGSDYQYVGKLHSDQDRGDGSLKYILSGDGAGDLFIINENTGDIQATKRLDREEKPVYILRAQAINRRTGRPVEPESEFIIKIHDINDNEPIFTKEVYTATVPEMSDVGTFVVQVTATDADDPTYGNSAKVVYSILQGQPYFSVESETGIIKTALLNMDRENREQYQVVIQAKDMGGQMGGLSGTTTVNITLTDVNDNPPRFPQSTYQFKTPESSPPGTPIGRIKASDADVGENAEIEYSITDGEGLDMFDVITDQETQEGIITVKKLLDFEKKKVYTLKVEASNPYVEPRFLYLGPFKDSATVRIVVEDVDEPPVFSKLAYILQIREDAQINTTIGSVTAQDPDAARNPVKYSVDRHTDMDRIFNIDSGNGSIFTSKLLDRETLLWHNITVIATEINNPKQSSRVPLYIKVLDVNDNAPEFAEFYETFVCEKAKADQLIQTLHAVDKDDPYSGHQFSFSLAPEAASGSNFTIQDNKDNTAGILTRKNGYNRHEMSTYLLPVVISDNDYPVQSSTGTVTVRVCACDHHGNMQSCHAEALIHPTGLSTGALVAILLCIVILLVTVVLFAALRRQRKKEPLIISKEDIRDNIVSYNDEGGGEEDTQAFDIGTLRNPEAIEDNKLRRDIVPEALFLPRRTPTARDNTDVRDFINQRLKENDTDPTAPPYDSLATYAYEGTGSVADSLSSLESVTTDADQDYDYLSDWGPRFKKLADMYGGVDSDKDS
Protocol: The cell suspension of the 786-O/hCDH6 stably expressing cell line produced in 6)-2-2-1 was centrifuged, and the supernatant was then removed. Thereafter, the cells were suspended by the addition of labeled NOV0712 or labeled H01L02 (final concentration: 5 nM) and, further, the addition of each of the 4 humanized hG019 antibodies (clone Nos: H01L02, H02L02, H02L03 and H04L02), which had been prepared in Example 5)-5-3, or the anti-CDH6 antibody NOV0712, which had been prepared in Reference Example 1, or human IgG1 (Calbiochem) as a negative control (final concentration: as shown in the abscissa of FIG. 7). The cells were left standing at 4° C. for 1 hour. Thereafter, the cells were washed twice with PBS supplemented with 5% FBS, followed by detection using a flow cytometer (Canto II; BD Biosciences). The data was analyzed using FlowJo (TreeStar, Inc.). The abscissa depicts the final concentration of the added unlabeled antibody, and the ordinate depicts the amount of the antibody bound based on mean fluorescence intensity. When unlabeled NOV0712 is added to cells supplemented with labeled NOV0712, the amount of the labeled antibody bound is decreased by replacement with the unlabeled antibody in an addition concentration-dependent manner because they compete with each other for binding to the same epitope. […]

[2] = molecular target: T2, EC5-deleted human CDH6 (EC5 deletion mutant, on cells) (human, UniProt P55285 54-790); assay: flow cytometry, 293α cells transiently expressing EC5-deleted hCDH6 (open) against untransfected cells (shaded), APC anti-human IgG F(ab')2
T2 construct: Full-length human CDH6 lacking EC5; Cloned in p3xFLAG-CMV-9; also called EC5-deleted hCDH6
T2 sequence: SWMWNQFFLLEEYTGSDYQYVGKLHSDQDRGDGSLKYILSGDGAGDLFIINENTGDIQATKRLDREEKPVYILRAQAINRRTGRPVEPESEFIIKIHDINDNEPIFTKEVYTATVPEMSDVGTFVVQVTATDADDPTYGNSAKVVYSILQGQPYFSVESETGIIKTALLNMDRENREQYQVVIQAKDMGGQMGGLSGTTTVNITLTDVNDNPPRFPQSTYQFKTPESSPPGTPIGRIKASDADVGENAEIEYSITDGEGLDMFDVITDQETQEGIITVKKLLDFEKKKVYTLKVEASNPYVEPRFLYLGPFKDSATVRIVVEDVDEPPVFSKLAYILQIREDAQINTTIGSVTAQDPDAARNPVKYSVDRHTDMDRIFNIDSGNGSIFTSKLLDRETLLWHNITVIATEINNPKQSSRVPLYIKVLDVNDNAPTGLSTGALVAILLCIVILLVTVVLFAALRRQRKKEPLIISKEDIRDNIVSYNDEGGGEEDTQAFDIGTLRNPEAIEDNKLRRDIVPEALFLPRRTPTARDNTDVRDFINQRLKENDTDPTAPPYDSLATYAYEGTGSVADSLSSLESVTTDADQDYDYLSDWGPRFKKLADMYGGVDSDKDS
Protocol: Thereafter, the cells were suspended by the addition of each of the 4 humanized hG019 antibodies (clone Nos: H01L02, H02L02, H02L03 and H04L02), which had been prepared in Example 5)-5-3, or the anti-CDH6 antibody NOV0712, which had been prepared in Reference Example 1, or human IgG1 (Calbiochem) as a negative control. The cells were left standing at 4° C. for 1 hour. The cells were washed twice with PBS supplemented with 5% FBS, and then suspended by the addition of APC-anti-human IgG goat F(ab′)2 (Jackson ImmunoResearch Laboratories, Inc.) that had been 500-fold diluted with PBS supplemented with 5% FBS. The cells were left standing at 4° C. for 1 hour. The cells were washed twice with PBS supplemented with 5% FBS, followed by detection using a flow cytometer (Canto II; BD Biosciences). The data was analyzed using FlowJo (TreeStar, Inc.). In the histograms of FIGS. 5-1 to 5-6, the abscissa depicts APC fluorescence intensity indicating the amount of the antibody bound, and the ordinate depicts cell count. […] Fluorescence intensity is enhanced when the antibody binds to full-length hCDH6 or each EC domain deletion mutant on the cell surface. The human IgG1 control binds to none of the transfected cells.

[3] = molecular target: T1, human CDH6 (full-length, on cells); assay: flow cytometry, 293α cells transiently transfected with pcDNA3.1-hCDH6, PE anti-human IgG Fcγ F(ab')2, mean fluorescence intensity
Protocol: (§1) The CDH6-binding activity of the human chimeric anti-CDH6 antibody chG019 purified in 4)-2 was confirmed by flow cytometry. […] The cells were cultured overnight under conditions of 37° C. and 5% CO₂, treated with TrypLE Express (Thermo Fisher Scientific Inc.), and thereafter, a cell suspension was prepared. chG019 was added to the suspension of each of these cells. The cells were left standing at 4° C. for 1 hour. Thereafter, the cells were washed twice with PBS supplemented with 5% FBS, and then suspended by the addition of PE-labeled F(ab′)2 Fragment anti-human IgG, Fcγ antibody (Jackson ImmunoResearch Laboratories, Inc.) that had been 500-fold diluted with PBS supplemented with 5% FBS. The cells were left standing at 4° C. for 1 hour. The cells were washed twice with PBS supplemented with 5% FBS, and then re-suspended in PBS supplemented with 5% FBS, followed by detection using a flow cytometer (Canto II; BD Biosciences). The data was analyzed using FlowJo (TreeStar, Inc.). […] In FIG. 4, the abscissa depicts antibody concentration, and the ordinate depicts the amount of the antibody bound, based on mean fluorescence intensity.

[4] = molecular target: T3, cynomolgus monkey CDH6 (full-length, on cells) (cynomolgus monkey, UniProt P55285 54-790 (human entry)); assay: flow cytometry, 293α cells transiently transfected with pcDNA3.1-cynoCDH6, PE anti-human IgG Fcγ F(ab')2, mean fluorescence intensity
T3 construct: Expressed from pcDNA3.1-cynoCDH6 on transfected cells; also called cynoCDH6
T3 sequence: T1 sequence with Y300H, H457R, A707G
Protocol: as §1

IC50 (read off the curve) [1]: ~4 nM
binding result [2]: no binding (tested: not given)
B1: anti-CDH6 antibody NOV0712 (antibody, V domains shown)
VH: QVQLLESGGGLVQPGGSLRLSCAASGFTFSSHGMHWVRQAPGKGLEWVSVISGSGSNTGYADSVKGRFTISRDNSKNTLYLQMNSLRAEDTAVYYCARQWGSYAFDSWGQGTLVTVSS
VL: DIQMTQSPSSLSASVGDRVTITCRASQSISSYLNWYQQKPGKAPKLLIYAVSTLQSGVPSRFSGSGSGTDFTLTISSLQPEDFATYYCQQSGTFPPTTFGQGTKVEIKR

EC50 (read off the curve) [3]: ~0.01 µg/mL
EC50 (read off the curve) [4]: ~0.01 µg/mL
B2: human chimeric anti-CDH6 antibody chG019 (antibody, human IgG1)
heavy: not shown
light: DIQMTQSPSLLSASVGDRVTLNCKASQNIYKNLAWYQQKLGEGPKLLIYDANTLQTGIPSRFSGSGSGSDFTLTISSLQPEDVATYFCQQYYSGWAFGGVTNLELKRAVAAPSVFIFPPSDEQLKSGTASVVCLLNNFYPREAKVQWKVDNALQSGNSQESVTEQDSKDSTYSLSSTLTLSKADYEKHKVYACEVTHQGLSSPVTKSFNRGEC
notes: Human IgG1/kappa constant regions; also called chimeric G019 antibody; chG019 antibody
